Changes are numbered by the printed parent chain.
Assays:
[1] = biological target: T1, H1MI15-I53_dn5B trimer (A/Michigan/45/2015 HA 1-676 Y98F no lkr dn5B.SA.WELQ-H) (influenza A virus H1/A/Michigan/45/2015 …); assay: in vitro nanoparticle assembly
[2] = biological target: T1, H1MI15-I53_dn5B trimer …; assay: in vitro nanoparticle assembly; SEC, DLS, nsTEM
[3] = biological target: T1, H1MI15-I53_dn5B trimer …; assay: in vitro nanoparticle assembly, SEC
[4] = biological target: T1, H1MI15-I53_dn5B trimer …; assay: in vitro nanoparticle assembly, SEC and SDS-PAGE

B1: I53_dn5A_2gly pentamer (designed binder)
chain: KYDGSKLRIGILHARGNAEIILELVLGALKRLQEFGVKRENIIIETVPGSFELPYGSKLFVEKQKRLGKPLDAIIPIGVLIRGNDTHFDYIADSTTHQLMKLNFELGIPVIFGVLTTNSTEQAEERAGTKAGNHGEDWGAAAVEMATKFNLEEQKLISEEDLHHHHHH
B1: binds [1].

B2: I53_dn5Acp7 PAS pentamer (designed binder)
chain: MGSHHHHHHGSDEQAEERAGTKAGNHGEDWGAAAVEMATKFNGSGGSGKYDGSKLRIGILHARGNAEIILELVLGALKRLQEFGVKRENIIIETVPGSFELPYGSKLFVEKQKRLGKPLDAIIPIGVLIRGSTAHFDYIADSTTHQLMKLNFELGIPVIFGVLTTESGGSASPAAPAPASPAAPAPSAPAAASPAAPAPASPAAPAPSAPAAASPAAPAPASPAAPAPSAPAA
B2: binds [2].

B3: I53_dn5A_1C5kPEG pentamer (designed binder)
chain: MGKYDGSKLRIGILHARGNAEIILALVLGALKRLQEFGVKRENIIIETVPGSFELPYGSKLFVEKQKRLGKPLDAIIPIGVLIRGSTPHFDYIADSTTHQLMKLNFELGIPVIFGVITADTCEQAEARAGLIEGKMHNHGEDWGAAAVEMATKFNGGWELQLEGSHHHHHH
B3: binds [3].

B4: I53_dn5A_D120C pentamer coupled to 1 kDa PEG (designed binder)
chain: B3 chain
B4: binds [4].

B5: I53_dn5A_D120C pentamer coupled to 2 kDa PEG (designed binder)
chain: B3 chain
B5: binds [4].

B6: I53_dn5A_2C2kPEG pentamer (designed binder)
chain: B3 chain with S86C
B6: binds [2].

B7: I53_dn5A_S84C_D120C pentamer coupled to 1 kDa PEG (designed binder)
chain: B3 chain with S86C
B7: binds [2].
